Data as given in article PMC10384591, “Multi-Enzymatic Cascade for Efficient Deracemization of DL-Pantolactone into D-Pantolactone” (Molecules, 2023).

Assays:
[1] = tested on: T1, ZpaCPR; assay: NADPH oxidation, absorbance […] nm, Michaelis-Menten fit; format: biochemical, Zygosaccharomyces parabailii; conditions: 0.15 mM NADPH, 200 mM PBS pH 5.5, 45 °C
T1 construct: gene CPR; pET28a, codon-optimized synthetic gene, E. coli BL21(DE3), Ni-NTA purified

[2] = biological target: T2, CduCPR (Candida dubliniensis, UniProt B9WJQ5); assay: whole-cell reduction to D-pantolactone; format: cell-based; conditions: E. coli cells co-expressing EsGDH
T2 construct: gene CPR-C2; pACYCDuet-1, co-expressed with EsGDH in E. coli BL21(DE3) cells
T2 sequence (B9WJQ5 1-309): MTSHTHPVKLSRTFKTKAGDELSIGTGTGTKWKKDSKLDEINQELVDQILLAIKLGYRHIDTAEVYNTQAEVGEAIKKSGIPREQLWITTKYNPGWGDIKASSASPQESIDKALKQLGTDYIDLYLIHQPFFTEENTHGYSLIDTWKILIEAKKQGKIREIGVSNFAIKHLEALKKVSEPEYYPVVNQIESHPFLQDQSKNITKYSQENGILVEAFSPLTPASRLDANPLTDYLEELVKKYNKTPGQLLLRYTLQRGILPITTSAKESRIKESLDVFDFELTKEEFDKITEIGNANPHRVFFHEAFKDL

[3] = biological target: T3, NasLPLDH (Nocardia asteroides, UniProt U5EKS1); assay: substrate specificity, dehydrogenation by recombinant enzyme; format: cell-based; conditions: recombinant E. coli BL21(DE3); FMN-dependent
T3 construct: gene NCAST_32_01610; pET28a, codon-optimized synthetic gene, E. coli BL21(DE3)
T3 sequence (U5EKS1 1-404): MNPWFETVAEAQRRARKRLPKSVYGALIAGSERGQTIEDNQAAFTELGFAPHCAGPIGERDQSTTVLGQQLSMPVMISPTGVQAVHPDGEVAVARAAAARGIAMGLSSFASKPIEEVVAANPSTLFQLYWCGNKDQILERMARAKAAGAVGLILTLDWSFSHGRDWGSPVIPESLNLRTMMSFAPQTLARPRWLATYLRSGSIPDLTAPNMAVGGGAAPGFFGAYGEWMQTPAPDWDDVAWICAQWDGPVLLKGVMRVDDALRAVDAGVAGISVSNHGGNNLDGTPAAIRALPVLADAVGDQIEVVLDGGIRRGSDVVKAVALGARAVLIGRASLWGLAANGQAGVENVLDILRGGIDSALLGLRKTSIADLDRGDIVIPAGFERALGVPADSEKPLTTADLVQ

[4] = substrate: CC1(C)COC(=O)[C@H]1O; assay: purified protein; format: biochemical, Amycolatopsis methanolica; conditions: 0.15 mM FMN, 200 mM PBS pH 8.0, 30 °C

Molecule: CC1(C)COC(=O)C1=O [ketopantolactone]
- Km [1]: 3.65 ± 0.58 mM
- whole-cell reduction to D-pantolactone [2]: used to catalyze the reduction of ketopantolactone, affording the single D-enantiomer

Molecule: CC1(C)COC(=O)[C@H]1O [L-pantolactone]
- substrate specificity, dehydrogenation by recombinant enzyme [3]: all five LPLDHs showed the capacity to catalyze the dehydrogenation of L-pantolactone but not D-pantolactone

B1: AmeLPLDH (Amycolatopsis methanolica 239) (protein)
chain: MSNGWFETVAEAQRRARKRLPKSVYGALVAGSERGITVDDNIAAFAELGFAPHVAGLSDKRELGTTVMGQPISLPVVISPTGVQAVHPDGEVAVARAAAARGTAMGLSSFASKSIEEVAAANPQTFFQMYWVGSRDVLVQRMERARAAGAVGLIMTLDWSFSTGRDWGSPVIPEKLDLKAMARFAPEGITRPKWLWDFAKTRKLPDLTTPNLTPPGGTAPTFFGAYGEWMQTPLPTWEDVAWLREQWGGPFMLKGVMRVDDAKRAVDAGVTAISVSNHGGNNLDGTPAPIRALPAIADAVGGDVEVLLDGGIRRGSDVVKAIALGAKAVLIGRAYLWGLAANGQAGVENVLDILRGGIDSAVLGLGKTSIHELTRDDVVIPPGFERALGVPKS
notes: pET28a, codon-optimized synthetic gene, E. coli BL21(DE3), Ni-NTA purified, Brij 35 solubilised
- Km [4]: 0.57 ± 0.04 mM
- Vmax [4]: 52.5 µmol/min/mg
- kcat [4]: 36.41 ± 0.29 s⁻¹
- kcat/Km [4]: 63850 ± 510 M⁻¹ s⁻¹
